Publication PMC9175492

B1: HiBit, an 11-residue peptide derived from NanoLuc (peptide)
peptide: VSGWRLFKKIS
B2: cyclic peptidyl inhibitor P1, Cyclo(…) (peptide)
peptide: GQLDPETGEFL
modifications: here or on the partner: cyclic peptide

Experiments:
[1] = molecular target: LgBit, an 18-kDa subunit of NanoLuc; assay: split reporter
[2] = molecular target: Kelch domain of Kelch-like ECH-associated protein 1 (Keap1); assay: fluorescence polarisation

Binder	fold induction of luminescence at 10 μM [1] [fold]	IC50 [2] [µM]
B1	20	
B2		0.014
